Where “and” joins values, the source holds several entries; their conditions need not be identical. Equal entries are not always repeated.
Columns and labels:
Details in all cases: both partners purified
[1] = target: T1, PRPF40A WW12 (tandem WW domains, residues 141-236) (human, UniProt O75400 141-236); assay: ITC; GB1-tagged SF1/SF3A1 constructs in the syringe and the WW tandem in the cell; 25 °C, 20 mM sodium phosphate pH 6.5, 100 mM NaCl; one-site model; apparent affinities
T1 construct: pETM11 vector, NcoI/KpnI; 15N or 13C,15N labelled for NMR; also called PRPF40A WW tandem; PRPF40A tandem WW domains; source: E. coli BL21(DE3), purified (Ni-NTA, TEV, reverse Ni-NTA, SEC); not shown: His6, N-terminal, cleaved

[2] = target: T2, PRPF40A N-ext-WW12 mutant (PPVP/PALPP motifs changed to alanine residues) (human, UniProt O75400 56-236, PPVP, residues 78-81, to alanine residues | PALPP, residues 123-127, to alanine …); assay: ITC; 16-mer SF1 and polyproline peptides (N-terminal GB1 tagged) in the cell and PRPF40A construct in the syringe (said for Fig. 2; not told for Fig. 5C); 25 °C, 20 mM sodium phosphate pH 6.5, 100 mM NaCl; one-site model; apparent affinities
T2 construct: PRPF40A isoform 1, residues 56-236, with the motifs PPVP (78-81) and PALPP (123-127) changed to alanine residues; Made by site-directed mutagenesis; also called mutant version of the N-ext-WW12 construct; mutated version of the N-extWW12; source: E. coli BL21(DE3), purified (Ni-NTA, TEV, reverse Ni-NTA, SEC); not shown: His6, N-terminal, cleaved
T2 sequence (looked up): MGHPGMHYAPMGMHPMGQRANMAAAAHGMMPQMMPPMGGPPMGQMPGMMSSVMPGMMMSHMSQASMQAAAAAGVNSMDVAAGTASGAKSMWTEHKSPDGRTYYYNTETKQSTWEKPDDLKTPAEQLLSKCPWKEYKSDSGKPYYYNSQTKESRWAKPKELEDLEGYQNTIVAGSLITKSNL

[3] = target: T1, PRPF40A WW12 (tandem WW domains, …); assay: as above
[4] = target: T3, PRPF40A N-ext-WW12 (residues 56-236) (human, UniProt O75400 56-236); assay: as above
T3 construct: PRPF40A isoform 1, residues 56-236: N-terminal proline-rich region and the WW tandem; also called N-terminal extended WW12 construct; source: E. coli BL21(DE3), purified (Ni-NTA, TEV, reverse Ni-NTA, SEC); not shown: His6, N-terminal, cleaved
T3 sequence (looked up): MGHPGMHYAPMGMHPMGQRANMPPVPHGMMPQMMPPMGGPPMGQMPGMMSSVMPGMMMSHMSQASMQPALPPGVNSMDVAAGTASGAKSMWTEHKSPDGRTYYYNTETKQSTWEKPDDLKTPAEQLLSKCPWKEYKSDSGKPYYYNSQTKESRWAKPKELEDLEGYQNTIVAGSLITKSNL

[5] = target: T4, PRPF40A WW12 (tandem WW domains, residues 141-236) (human, UniProt O75400 141-236); assay: ITC; MicroCal PEAQ-ITC, 25 °C, 20 mM sodium phosphate pH 6.5, 100 mM NaCl; PRPF40A constructs and GB1-tagged SF1 16-mer peptides; who was in the syringe is not stated for these panels (Fig. 2B, Fig. 5C); one-site model
T4 construct: pETM11 vector (NcoI/KpnI); also called PRPF40A WW tandem; isolated WW domains; source: E. coli BL21(DE3), purified (Ni-NTA, TEV cleavage, reverse Ni-NTA, SEC); not shown: His6, N-terminal, cleaved

[6] = target: T5, PRPF40A N-ext-WW12 (residues 56-236) (human, UniProt O75400 56-236); assay: as above
T5 construct: PRPF40A isoform 1, residues 56-236: N-terminal proline-rich region and both WW domains; pETM11 vector; also called Nter Ext WW12; N-terminal extended WW12 construct; source: E. coli BL21(DE3), purified (Ni-NTA, TEV cleavage, reverse Ni-NTA, SEC); not shown: His6, N-terminal, cleaved
T5 sequence (looked up): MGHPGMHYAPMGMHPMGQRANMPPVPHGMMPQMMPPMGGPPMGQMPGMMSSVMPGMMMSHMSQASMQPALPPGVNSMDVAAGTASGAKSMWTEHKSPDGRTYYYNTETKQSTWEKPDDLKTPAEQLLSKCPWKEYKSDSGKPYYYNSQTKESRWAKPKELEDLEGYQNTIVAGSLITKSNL

B1: GB1-tagged SF3A1 Middle Pro (364-413) (domain or fragment, UniProt Q15459 364-413, looked up)
chain: EGQKVPPPPETPMPPPLPPTPDQVIVRKDYDPKASKPLPPAPAPDEYLVS
notes: SF3A1 residues 364-413, proline-rich region with a PPLP motif; also called SF3A1 region (364-413); source: E. coli BL21(DE3), purified (Ni-NTA, SEC), GB1 tag kept; not shown: GB1, N-terminal, kept
Question: How did the Kd [1] turn out when B1 was run?
Answer: ~10 µM

B2: GB1-tagged SF1 575-590 peptide (SF1 PRPF40A WW binding site) (peptide)
chain: GAMSGSPPLPPGAPPPPPPPPPSGSN
notes: common N-terminal residues after the TEV site (TEVsite-GAMSGS-peptide-SGSN); SF1 residues 575-590; common C-terminal residues; pET24 vector with 6xHis, GB1 and TEV site as N-terminal cassette; not cut with TEV for ITC and NMR titrations; also called SF1_(WWbs); source: E. coli BL21(DE3), purified (Ni-NTA, SEC), GB1 tag kept; not shown: GB1, N-terminal, kept
Question: Does B2 bind [2]?
Answer: binds

Question: And the Kd [3]?
Answer: 1.4 µM

Question: And the Kd [4]?
Answer: 8.8 µM

B3: GB1-SF1(478-493) 16-mer peptide (peptide)
chain: GAMSGSMPPPPPPPSGQPPPPPSGSN
notes: common N-terminal residues after the TEV site (TEVsite-GAMSGS-peptide-SGSN); SF1 (splicing factor 1) residues 478-493; common C-terminal residues; pET24 vector with 6xHis, GB1 and TEV site as N-terminal cassette, not cleaved; source: E. coli BL21(DE3), purified (Ni-NTA, SEC); not shown: GB1, N-terminal, kept
Question: Which Kd [5] does the source give for B3 here?
Answer: 8.26 µM and 10.3 µM and 10.2 µM and 9.59 µM

B4: GB1-tagged SF1 470-485 peptide (peptide)
chain: GAMSGSMPPPPMGMMPPPPPPPSGSN
notes: common N-terminal residues after the TEV site; SF1 residues 470-485; common C-terminal residues; source: E. coli BL21(DE3), purified (Ni-NTA, SEC), GB1 tag kept; not shown: GB1, N-terminal, kept
Question: Which Kd [3] does the source give for B4 here?
Answer: ~10 µM

B5: GB1-SF1(425-440) 16-mer peptide (peptide)
chain: GAMSGSMQPPPPPMNQGPHPPGSGSN
notes: common N-terminal residues after the TEV site (TEVsite-GAMSGS-peptide-SGSN); SF1 (splicing factor 1) residues 425-440; common C-terminal residues; pET24 vector with 6xHis, GB1 and TEV site as N-terminal cassette, not cleaved; source: E. coli BL21(DE3), purified (Ni-NTA, SEC); not shown: GB1, N-terminal, kept
Question: B5 was tested. Which Kd [5] did it give?
Answer: 15.9 µM and 21.8 µM and 22.9 µM and 20.2 µM

B6: GB1-SF1(623-638) 16-mer peptide (peptide)
chain: GAMSGSMPPFGMPPAPPPPPPQSGSN
notes: common N-terminal residues after the TEV site (TEVsite-GAMSGS-peptide-SGSN); SF1 (splicing factor 1) residues 623-638; common C-terminal residues; pET24 vector with 6xHis, GB1 and TEV site as N-terminal cassette, not cleaved; source: E. coli BL21(DE3), purified (Ni-NTA, SEC); not shown: GB1, N-terminal, kept
Question: For B6, which Kd [5] is on record?
Answer: 21.8 µM and 24.8 µM and 23.3 µM

B7: GB1-SF1(470-485) 16-mer peptide (peptide)
chain: GAMSGSMPPPPMGMMPPPPPPPSGSN
notes: common N-terminal residues after the TEV site (TEVsite-GAMSGS-peptide-SGSN); SF1 (splicing factor 1) residues 470-485; common C-terminal residues; pET24 vector with 6xHis, GB1 and TEV site as N-terminal cassette, not cleaved; source: E. coli BL21(DE3), purified (Ni-NTA, SEC); not shown: GB1, N-terminal, kept
Question: B7 was tested. Which Kd [6] did it give?
Answer: > 250 µM

B8: GB1-tagged SF1 Pro ABCD (410-639) (domain or fragment, UniProt Q15637 410-639, looked up)
chain: GHPMQHNPNGPPPPWMQPPPPPMNQGPHPPGHHGPPPMDQYLGSTPVGSGVYRLHQGKGMMPPPPMGMMPPPPPPPSGQPPPPPSGPLPPWQQQQQQPPPPPPPSSSMASSTPLPWQQNTTTTTTSAGTGSIPPWQQQQAAAAASPGAPQMQGNPTMVPLPPGVQPPLPPGAPPPPPPPPPGSAGMMYAPPPPPPPPMDPSNFVTMMGMGVAGMPPFGMPPAPPPPPPQN
notes: SF1 residues 410-639, the whole proline-rich C-terminal region; also called complete C-terminal region of SF1; source: E. coli BL21(DE3), purified (Ni-NTA, SEC), GB1 tag kept; not shown: GB1, N-terminal, kept
Question: Which “stoichiometry N” value [1] does the source give for B8 here?
Answer: 3 PRPF40A tandems per SF1 construct
